From article PMC13042514, “Comprehensive Profiling of N 6‐methyladnosine (m6A) Readouts Reveals Novel m6A Readers That Regulate Human Embryonic Stem Cell Differentiation”

How the values were obtained:
Assay in all cases: EMSA; EMSA: Beyotime GS606 kit binding buffer (composition not given), 1 ug protein and 1 uL of 2.5 nM biotin probe in 10 uL, on ice 10 min; pull-down: Pierce 20164 kit, 50 pmol RNA, 200 ug total protein, 4 C 30-60 min
Conditions in all cases: protein: recombinant; tags: GST; label: biotin; single strand
[1] = molecular target: GST-FXR2 (UniProt P51116 1-673)
Sequence of GST-FXR2 (P51116 whole entry): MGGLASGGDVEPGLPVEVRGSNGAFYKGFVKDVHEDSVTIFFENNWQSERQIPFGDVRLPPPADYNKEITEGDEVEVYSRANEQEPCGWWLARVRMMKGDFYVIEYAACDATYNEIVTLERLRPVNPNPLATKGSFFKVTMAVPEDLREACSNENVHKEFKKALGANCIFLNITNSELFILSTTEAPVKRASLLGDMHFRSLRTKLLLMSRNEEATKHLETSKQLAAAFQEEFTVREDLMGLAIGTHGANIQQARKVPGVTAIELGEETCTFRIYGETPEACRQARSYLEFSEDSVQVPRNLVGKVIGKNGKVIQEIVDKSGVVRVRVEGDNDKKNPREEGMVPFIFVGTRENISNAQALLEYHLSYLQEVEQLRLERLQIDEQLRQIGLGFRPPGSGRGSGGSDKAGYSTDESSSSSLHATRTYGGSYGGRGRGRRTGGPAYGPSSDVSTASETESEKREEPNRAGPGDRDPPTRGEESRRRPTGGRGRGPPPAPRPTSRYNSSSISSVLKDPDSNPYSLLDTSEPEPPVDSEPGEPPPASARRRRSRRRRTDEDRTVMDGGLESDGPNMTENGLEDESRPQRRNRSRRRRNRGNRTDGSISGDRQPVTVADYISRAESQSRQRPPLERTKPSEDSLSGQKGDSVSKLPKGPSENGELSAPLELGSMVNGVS

[2] = molecular target: GST-FUBP3 (UniProt Q96I24 1-572)
Sequence of GST-FUBP3 (Q96I24 whole entry): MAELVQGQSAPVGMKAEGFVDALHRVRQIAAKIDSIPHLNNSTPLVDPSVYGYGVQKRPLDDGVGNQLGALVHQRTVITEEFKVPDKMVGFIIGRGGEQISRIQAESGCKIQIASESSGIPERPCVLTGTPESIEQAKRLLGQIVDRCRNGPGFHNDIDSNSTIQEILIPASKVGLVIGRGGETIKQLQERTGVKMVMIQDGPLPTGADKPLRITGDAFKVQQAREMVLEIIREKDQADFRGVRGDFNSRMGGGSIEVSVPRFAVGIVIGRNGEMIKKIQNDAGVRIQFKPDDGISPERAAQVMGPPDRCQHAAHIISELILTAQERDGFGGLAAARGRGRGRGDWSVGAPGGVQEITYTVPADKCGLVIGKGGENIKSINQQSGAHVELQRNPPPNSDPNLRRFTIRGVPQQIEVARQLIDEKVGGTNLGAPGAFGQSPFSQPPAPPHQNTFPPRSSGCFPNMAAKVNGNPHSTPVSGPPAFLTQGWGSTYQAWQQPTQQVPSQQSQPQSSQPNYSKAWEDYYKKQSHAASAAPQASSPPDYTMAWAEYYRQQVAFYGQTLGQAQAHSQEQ

[3] = molecular target: T1, GST-L1TD1 (UniProt Q5T7N2 1-865)
T1 sequence: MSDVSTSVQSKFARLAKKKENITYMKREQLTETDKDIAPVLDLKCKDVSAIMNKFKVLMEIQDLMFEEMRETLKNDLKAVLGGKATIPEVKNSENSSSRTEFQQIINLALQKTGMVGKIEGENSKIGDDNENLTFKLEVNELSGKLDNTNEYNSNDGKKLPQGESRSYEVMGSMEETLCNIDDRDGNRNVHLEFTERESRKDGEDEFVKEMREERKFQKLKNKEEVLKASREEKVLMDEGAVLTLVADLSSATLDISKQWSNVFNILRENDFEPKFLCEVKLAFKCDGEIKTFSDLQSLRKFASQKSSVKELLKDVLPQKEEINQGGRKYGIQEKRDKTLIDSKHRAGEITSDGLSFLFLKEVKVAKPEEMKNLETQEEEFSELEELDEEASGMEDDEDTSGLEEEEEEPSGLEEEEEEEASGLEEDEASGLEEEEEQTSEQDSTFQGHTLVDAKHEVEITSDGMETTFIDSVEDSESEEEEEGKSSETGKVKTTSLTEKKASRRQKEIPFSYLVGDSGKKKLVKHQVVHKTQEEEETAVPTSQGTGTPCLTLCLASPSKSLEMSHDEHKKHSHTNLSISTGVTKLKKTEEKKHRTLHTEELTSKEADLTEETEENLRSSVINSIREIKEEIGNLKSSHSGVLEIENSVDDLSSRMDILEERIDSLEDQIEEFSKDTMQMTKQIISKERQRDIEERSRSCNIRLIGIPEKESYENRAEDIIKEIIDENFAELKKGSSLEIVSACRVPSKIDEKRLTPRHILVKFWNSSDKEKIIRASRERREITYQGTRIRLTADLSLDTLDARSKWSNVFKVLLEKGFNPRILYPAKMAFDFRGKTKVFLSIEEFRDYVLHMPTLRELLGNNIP

[4] = molecular target: GST-DDX6 (UniProt P26196 1-483)
Sequence of GST-DDX6 (P26196 whole entry): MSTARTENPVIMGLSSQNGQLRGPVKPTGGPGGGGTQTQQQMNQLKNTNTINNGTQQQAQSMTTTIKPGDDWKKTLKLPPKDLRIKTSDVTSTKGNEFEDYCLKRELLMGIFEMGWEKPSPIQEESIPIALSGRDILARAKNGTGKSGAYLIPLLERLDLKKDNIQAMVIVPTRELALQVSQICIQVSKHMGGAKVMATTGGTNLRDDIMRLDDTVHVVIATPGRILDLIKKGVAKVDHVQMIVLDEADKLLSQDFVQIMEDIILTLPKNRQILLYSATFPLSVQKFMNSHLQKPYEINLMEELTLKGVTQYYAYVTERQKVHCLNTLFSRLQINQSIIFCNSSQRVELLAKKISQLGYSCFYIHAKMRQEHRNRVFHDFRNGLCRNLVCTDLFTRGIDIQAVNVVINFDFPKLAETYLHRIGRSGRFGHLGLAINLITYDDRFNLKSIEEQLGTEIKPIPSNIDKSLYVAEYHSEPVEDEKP

Measured: binding result

CGUCUCGGACUCGGACUGCU (ssRNA, m6A at positions 9 and 15) [ss-m6A (EMSA)]
binds: all assays above
